The record followed here is paper PMC11320721.

The target in experiment [1] is Nucleosome core particle with 207 bp DNA (NCP207) (human) (UniProt P04908). The experiment is described as follows: fluorescence polarisation.
Experiment [2] concerns the target Nucleosome core particle with 147 bp 601 DNA (NCP147) (human) (UniProt P04908). The experiment is described as follows: fluorescence polarisation.
Experiment [3] deals with PZP domain of JADE1 (JADE1PZP), wild type (human) (UniProt Q6IE81). The experiment is described as follows: other fluorescence titration.
Chain of PZP domain of JADE1 (JADE1PZP), wild type (human) (Q6IE81 201-373): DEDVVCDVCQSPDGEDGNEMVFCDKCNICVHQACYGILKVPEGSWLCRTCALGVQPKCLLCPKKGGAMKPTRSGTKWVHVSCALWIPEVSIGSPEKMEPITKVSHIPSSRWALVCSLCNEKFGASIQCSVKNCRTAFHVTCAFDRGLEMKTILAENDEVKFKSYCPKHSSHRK

Chain of PZP domain of JADE1 (JADE1PZP), wild type (Q6IE81 201-373): as above

Turning to “K331A/R334A/K367A (KRK) mutant of JADE1PZP (from UniProt Q6IE81 201-373) (domain or fragment)”, in experiment [1], the fold decrease in binding against wild type JADE1PZP is 55 fold.
With “PZP domain of JADE1 (JADE1PZP), wild type (from UniProt Q6IE81 201-373) (domain or fragment)”, the S1/2 worked out at 2.8 µM in experiment [2] and 0.5 µM in experiment [1].
In experiment [3], “H3_(1–31) peptide (residues 1–31 of H3) (from UniProt P68431 2-32)” came in with a Kd of the first site (two-site binding model) of 0.3 µM and a Kd of the second site (two-site binding model) of 25 µM.
As to “H3_(15–34) peptide (residues 15–34 of H3) (from UniProt P68431 16-35)”, in experiment [3], the dissociation constant (Kd) was determined as 63 µM.
